Source: US12226476B2, “Helper epitope peptide and application thereof” (CHINA PHARMACEUTICAL UNIVERSITY, priority 2018, dated 2025)
Non-standard residues stand in square brackets, D forms with d. Phe(4-NO2) = N[C@@H](Cc1ccc([N+](=O)[O-])cc1)C(=O)O

Tested on: EPCAM
Assay: Antibody titer in serum of immunized mice, indirect ELISA
Format: in vivo
Conditions: FIG. 16; compared with the EPCAM group and the EPCAM-PADRE group; mice immunized subcutaneously, 50 μg, Freund's adjuvant
Method: The protocol is as follows: • (1) The helper epitope was connected to individual antigens or antigen epitope with the linking peptide to construct multiple fusion antigens. The sequence of the linking peptide is GPSL (i.e. Gly-Pro-Ser-Leu) (SEQ ID NO:51). • (2) The fusion antigens from (1) were emulsified adequately with complete Freund's adjuvant of the same volume. Then to immunize mice via subcutaneous injection with the emulsion at the dose of 50 μg per mouse. The strains of experimental mice including C57, Fvb and Balb/C. After 7 days and 14 days of first immunization, the fusion antigens from (1) were emulsified adequately with incomplete Freund's adjuvant of the same volume and then to immunize mice via subcutaneous injection with the emulsion at the dose of 50 μg per mouse. • (3) There are two detection methods. One is to obtain the orbital blood of immunized mice on 7, 14, 21 and 28 day respectively, centrifuge the whole blood to get the serum. Then the antibody titer is detected by indirect ELISA. The other one is: one week after the last immunization, the mice are killed to get the spleen. PBMC (peripheral blood mononuclear cells) are isolated, and the CTL-mediated cytotoxicity is detected by LDH (lactate dehydrogenase) kit.
The first step was to construct the fusion antigen. According to each fusion antigen, C57BL/6 female mice aged 6-8 weeks were randomly divided into three groups with 6 mice in each group. They were PBS group, existing antigen or antigen epitope group, antigen-PADRE or antigen epitope-PADRE group, and vaccine group containing fusion antigen.
In the second step, using fusion antigen to immunize mice via subcutaneous injection for 3 times […] 50 μg each time. Mixed with Freund's adjuvant of the same volume.
Method 1: The whole blood was collected every week after immunization and centrifugated at 6000 rpm for 20 min to obtain the serum for a total of 4 weeks. Antibody titers were detected by indirect ELISA as follows: • (1) Coating: the existing antigen or antigen epitope was diluted to 5 μg/mL with coating solution. Then the 100 μL mixed solution was added into each well of enzyme immunoassay test strip, and incubated in 37° C. incubator for 2 h; • (2) use PBST to wash each well 5 times for 5 min each time; • (3) Sealing: 150 μL locking solution was added to each well of the enzyme immunoassay test strip and incubated at 4° C. overnight. • (4) Repeat step (2); • (5) Incubation first antibody: the collected mouse serum was diluted with antibody diluent. Then the 100 μL mixed solution was added into each well, and incubated at 37° C. for 2 h; • (6) Repeat step (2); • (7) Incubating secondary antibodies: HRP-GOAT Anti-mouse IgG was diluted with antibody dilution in the ratio of 1:10000, and 100 μL dilution was added to each well, and incubated at 37° C. for 45 min; • (8) Repeat step (2); • (9) Substrate addition: 100 μL TMB substrate reaction solution was added into each well of enzyme label, and incubated at 37° C. for 15 min in darkness. • (10) Termination reaction: 50 μL 2M H2SO4 was added into each well to terminate the reaction. • (11) Color development: the absorbance value of the sample in each well was detected at 450/630 nm.

B1: EPCAM-3 ? 11pPhe-PADRE: fusion antigen: EPCAM linked via GPSL to helper epitope SEQ ID NO: 17 (protein)
chain: QEECVCENYKLAVNCFVNNNRQCQCTSVGAQNTVICSKLAAKCLVMKAEMNGSKLGRRAKPEGALQNNDGLYDPDCDESGLFKAKQCNGTSMCWCVNTAGVRRTDKDTEITCSERVRTYWIIIELKHKAREKPYDSKSLRTALQKEITTRYQLDPKFITSILYENNVITIDLVQNSSQKTQNDVDIADVAYYFEKDVKGESLFHSKKMDLTVNGEQLDLDPGQTLIYYVDEKAPEFSMQGLKGPSLAK[Phe(4-NO2)]VAAWTLK[Phe(4-NO2)]AA
- antibody titers: increased significantly
